Laboratory results published in US20250376696A1.

Molecular target: SIRPα of non-obese diabetic (NOD) mice (mouse (NOD strain)) (UniProt O89094)
Experiment: cell-based or functional assay

Chain of UniProt O89094 (O89094 168-257): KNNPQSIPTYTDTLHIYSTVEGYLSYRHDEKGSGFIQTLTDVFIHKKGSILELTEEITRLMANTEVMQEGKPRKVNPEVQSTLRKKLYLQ

Substance: human CD47 on lentiviral vector (LV) particles (from UniProt Q08722 19-323) (receptor)
- LV copies in plasmacytoid dendritic cells (pDC), NOD versus C57BL/6 mice: > 10 fold
- LV copies per cell (vector copy number, VCN) in sorted hepatocytes, NOD versus C57BL/6 mice: 4 fold
- VCN in liver macrophages, NOD versus C57BL/6 mice: 30 fold
- VCN in spleen, NOD versus C57BL/6 mice: 5 fold
